The values that follow come from patent publication US20240309055A1.

Bounds are passed on as bounds.

Test [1] addresses AAV2 capsid (AAV2-Luciferase vector) (adeno-associated virus 2) (UniProt P03135). The experiment in a line: cell-based or functional assay.
Test [2] deals with IgG affixed to the BLI probe. The experiment in a line: BLI kinetic analysis, 1:1 fit, protein M 15.6-250 nM, IgG on Anti-Mouse IgG Fc Capture biosensor (mouse IgG per paragraph 316), 37 C. On the technique in general: BLI is a label-free optical method that tracks binding on a fibre tip over time.
The target in test [3] is IgG affixed to the BLI probe. Kind of test: BLI kinetic analysis, 1:1 fit, protein M 15.6-250 nM, IgG on Anti-Mouse IgG Fc Capture biosensor (mouse IgG per paragraph 316), 37 C; same row: KD error 0.2 nM, X2 2.5, R2 1.00.
The target in test [4] is AAV2 capsid (AAV2-Luciferase vector) (adeno-associated virus 2) (UniProt P03135). Kind of test: cell-based or functional assay. The source holds these as a separate data set.
Test [5] concerns the target human intravenous immunoglobulin gamma (IVIG), 10% Human IVIG (Gamunex) (human). The experiment in a line: cell-based or functional assay.
In test [6] the target is IgG affixed to the BLI probe. Kind of test: BLI kinetic analysis, 1:1 fit, protein M 15.6-250 nM, IgG on Anti-Mouse IgG Fc Capture biosensor (mouse IgG per paragraph 316), 37 C; same row: KD error 0.2 nM, X2 1.9, R2 1.00.
Test [7] concerns the target IgG affixed to the BLI probe. Kind of test: BLI kinetic analysis, 1:1 fit, protein M 15.6-250 nM, IgG on Anti-Mouse IgG Fc Capture biosensor (mouse IgG per paragraph 316), 37 C; same row: KD error 0.5 nM, X2 2.4, R2 0.99.
For test [8], the target named is IgG affixed to the BLI probe. Kind of test: BLI at 37° C, IgG Fc capture biosensor (AHC or AMC, not told which), 1:1 fit, max conc. 50 nM, 6 points.
Test [9] concerns the target IgG affixed to the BLI probe. The experiment in a line: BLI at 37° C, IgG Fc capture biosensor (AHC or AMC, not told which), 1:1 fit, max conc. 250 nM, 5 dilutions.

UniProt P03135, sequence (P03135 whole entry, the tested form may be a part): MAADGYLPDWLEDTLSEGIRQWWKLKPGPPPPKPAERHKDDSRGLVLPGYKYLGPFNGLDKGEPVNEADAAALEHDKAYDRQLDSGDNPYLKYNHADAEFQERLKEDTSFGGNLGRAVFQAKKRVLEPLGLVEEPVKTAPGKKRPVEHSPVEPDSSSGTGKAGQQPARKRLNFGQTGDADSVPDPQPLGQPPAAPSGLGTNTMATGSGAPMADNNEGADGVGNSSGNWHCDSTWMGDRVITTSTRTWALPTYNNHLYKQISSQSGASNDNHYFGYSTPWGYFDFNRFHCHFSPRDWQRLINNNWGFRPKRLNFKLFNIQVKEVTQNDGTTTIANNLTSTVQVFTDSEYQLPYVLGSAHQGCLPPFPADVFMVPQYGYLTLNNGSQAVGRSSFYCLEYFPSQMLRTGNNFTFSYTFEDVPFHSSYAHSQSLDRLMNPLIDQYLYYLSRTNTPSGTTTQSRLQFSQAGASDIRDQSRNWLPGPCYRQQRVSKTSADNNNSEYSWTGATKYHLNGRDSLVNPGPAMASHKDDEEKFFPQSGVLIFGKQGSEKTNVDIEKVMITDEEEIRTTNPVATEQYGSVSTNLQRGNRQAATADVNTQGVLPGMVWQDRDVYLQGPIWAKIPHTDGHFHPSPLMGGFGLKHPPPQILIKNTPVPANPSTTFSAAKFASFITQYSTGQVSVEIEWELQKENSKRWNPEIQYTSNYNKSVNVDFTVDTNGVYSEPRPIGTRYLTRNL

As to “protein M without cleavage of the His tag (from UniProt P47523 37-556)”, in test [1], the molar ratio of protein M to AAV2 particle at which enhancement begins to saturate (protein M molecules per AAV2 particle) is 700000 and the molar ratio of protein M to AAV2 particle below which enhancement of the luciferase signal is abolished (protein M molecules per AAV2 particle) is less than 40000.
As to MG WT, in [2], the koff was determined as 0.00033 s⁻¹ and the kon stood at 28000 M⁻¹ s⁻¹. The molecule further showed a Kd in [3] of 11.9 nM.

B1: protein M (SEQ ID NO:2), His-tag removed by thrombin cleavage (protein)
chain: HHHHHHSSGLVPRGSHMTNLVNQSGYALVASGRSGNLGFKLFSTQSPSAEVKLKSLSLNDGSYQSEIDLSGGANFREKFRNFANELSEAITNSPKGLDRPVPKTEISGLIKTGDNFITPSFKAGYYDHVASDGSLLSYYQSTEYFNNRVLMPILQTTNGTLMANNRGYDDVFRQVPSFSGWSNTKATTVSTSNNLTYDKWTYFAAKGSPLYDSYPNHFFEDVKTLAIDAKDISALKTTIDSEKPTYLIIRGLSGNGSQLNELQLPESVKKVSLYGDYTGVNVAKQIFANVVELEFYSTSKANSFGFNPLVLGSKTNVIYDLFASKPFTHIDLTQVTLQNSDNSAIDANKLKQAVGDIYNYRRFERQFQGYFAGGYIDKYLVKNVNTNKDSDDDLVYRSLKELNLHLEEAYREGDNTYYRVNENYYPGASIYENERASRDSEFQNEILKRAEQNGVTFDENIKRITASGKYSVQFQKLENDTDSSLERMTKAVEGLVTVIGEEKFETVDITGVSSDTNEVKSLAKELKTNALGVKLKL
Take B1: in test [4], the AAV2-Luciferase signal, % of PBS control, 33 µg protein M incubated alone with AAV2 (% of PBS control) worked out at 216 and the AAV2-Luciferase signal, % of PBS control, 75 µg protein M incubated alone with AAV2 (% of PBS control) was 208. In test [5], the AAV2-Luciferase signal, % of no-IVIG control, at 8:1 molar ratio (33 µg protein M, 12.5 µg IVIG) (% of no-IVIG control) is 194; the AAV2-Luciferase signal, % of no-IVIG control, at 20:1 molar ratio (75 µg protein M, 12.5 µg IVIG) (% of no-IVIG control) worked out at 256; the AAV2-Luciferase signal, % of no-IVIG control, at protein M:IgG molar ratio 0.5:1 (% of no-IVIG control) is 40; the AAV2-Luciferase signal, % of no-IVIG control, at protein M:IgG molar ratio 1:1 (% of no-IVIG control) is 52. For the same molecule, in test [5], the AAV2-Luciferase signal, % of no-IVIG control, at protein M:IgG molar ratios greater than 2:1 (12.5 µg IVIG) (% of no-IVIG control) was in the range of 108 to 193 and the molar ratio of protein M to IgG sufficient to prevent AAV2 neutralization (protein M molecules per IgG molecule) came to 2.

B2: MG 40 (protein, part only)
chain: SLSLNDGSYQSEIDLSGGANFREKFRNFANELSEAITNSPKGLDRPVPKTEISGLIKTGDNFITPSFKAGYYDHVASDGSLLSYYQSTEYFNNRVLMPILQTTNGTLMANNRGYDDVFRQVPSFSGWSNTKATTVSTSNNLTYDKWTYFAAKGSPLYDSYPNHFFEDVKTLAIDAKDISALKTTIDSEKPTYLIIRGLSGNGSQLNELQLPESVKKVSLYGDYTGVNVAKQIFANVVELEFYSTSKANSFGFNPLVLGSKTNVINDLFASKPFTHIDLTQVPLQNSDNSAIDANKLKQAVGDIYNYRRFERQFQGYFAGGYIDKYLVKNVNTNKDSDDDLVYRSLKELNLHLEEAYREGDNTYYRVNENYYPGASIYENERASRDSEFQNEILKRAEQNGVTFDEN
modifications: N-terminal His-tag and thrombin site
As to B2, in test [2], the koff came out at 0.00031 s⁻¹ and the kon came to 31000 M⁻¹ s⁻¹. In [6], this molecule came in with a Kd of 10.1 nM.

B3: MG 31 (protein, part only)
chain: SLSLNDGSYQSEIDLSGGANFREKFRNFANELSEAITNSPKGLDRPVPKTEISGLIKTGDNFITPSFKAGYYDHVASDGSLLSYYQSTEYFNNRVLMPILQTTNGTLMANNRGYDDVFRQVPSFSGWSNTKATTVSTSNNLTYDKWTYFAAKGSPLYDSYPNHFFEDVKTLAIDAKDISALKTTIDSEKPTYLIIRGLSGNGSQLNELQLPESVKKVSLYGDYTGVNVAKQIFANVVELEFYSTSKANSFGFNPLVLGSKTNVINDLFASKPFTHIDLTQVTLQNSDNSAIDANKLKQAIGDIYNYRRFERQFQGYFAGGYIDKYLIKIVNTNPDVDDDIVYRSLKELNLHLEEAYREGDNIYYRVNENYYPGASIYENERASRDSEFQNEILKRAEQNGVTFDEN
modifications: N-terminal His-tag and thrombin site
In test [2], B3 registered a dissociation rate constant (koff) of 0.00047 s⁻¹ and a kon of 30000 M⁻¹ s⁻¹. The molecule also displayed a Kd in [7] of 15.5 nM.

B4: MG66* (modified M. genitalium protein M MG66 with Y338) (protein)
chain: SLSLNDGSYQSEIDLSGGANFREKFRNFANELSEAITNSPKGLDRPVPKTEISGLIKTGDNFITPSFKAGYYDHVAEDGSLLSYYQSTEYFNNRVLMPILQTTNGTLMANNRGYDDVFRQVPRFPGWSNTKPTTVSTSNNLTYDKWTYFAAKGSPLYDQYPNHTFEDVKTLAIDAKDISALKTTIDSEKPTYLIIRGLSGDGSQLNELQLPESVKKVSLYGDYTGVNVAKQIFANVVELEFYSTSKANSFGFNPLVLGSKTNVIYDLFVSKPFTHIDLTQVPLQNSDNSAIDANKLKQAVGDIYNYRRFERQFQGYFAGGYIDKYLVKNVNTNKDSDDDLVYRSLKELNLHLEEAYREGDNTYYRVNENYYPGASIYENERASRDSEFQNEILKRAEQNGVTFDEN
In test [8], B4 had a Kd of 0.69 nM, a koff of 5.55e-05 s⁻¹ and a kon of 80100 M⁻¹ s⁻¹.

B5: MG WT* (truncated M. genitalium protein M, amino acids 74-479, with Y338) (protein)
chain: SLSLNDGSYQSEIDLSGGANFREKFRNFANELSEAITNSPKGLDRPVPKTEISGLIKTGDNFITPSFKAGYYDHVASDGSLLSYYQSTEYFNNRVLMPILQTTNGTLMANNRGYDDVFRQVPSFSGWSNTKATTVSTSNNLTYDKWTYFAAKGSPLYDSYPNHFFEDVKTLAIDAKDISALKTTIDSEKPTYLIIRGLSGNGSQLNELQLPESVKKVSLYGDYTGVNVAKQIFANVVELEFYSTSKANSFGFNPLVLGSKTNVIYDLFASKPFTHIDLTQVTLQNSDNSAIDANKLKQAVGDIYNYRRFERQFQGYFAGGYIDKYLVKNVNTNKDSDDDLVYRSLKELNLHLEEAYREGDNTYYRVNENYYPGASIYENERASRDSEFQNEILKRAEQNGVTFDEN
For B5, in test [8], the Kd was determined as 0.8 nM, the koff worked out at 6.73e-05 s⁻¹ and the kon stood at 83800 M⁻¹ s⁻¹.

B6: MG29 (modified M. genitalium protein M MG29, N338) (protein, not shown: small tags and cut ends)
chain: SLSLNDGSYQSEIDLSGGANFREKFRNFANELSEAITNSPKGLDRPVPKTEISGLIKTGDNFITPSFKAGYYDHVAEDGSLLSYYQSTEYFNNRVLMPILQTTNGTLMANNRGYDDVFRQVPRFPGWSNTKATTVSTSNNLTYDKWTYFAAKGSPLYDQYPNHTFEDVKTLAIDAKDISALKTTIDSEKPTYLIIRGLSGNGSQLNELQLPESVKKVSLYGDYTGVNVAKQIFANVVELEFYSTSKANSFGFNPLVLGSKTNVINDLFVSKPFTHIDLTQVTLQNSDNSAIDANKLKQAVGDIYNYRRFERQFQGYFAGGYIDKYLVKNVNTNKDSDDDLVYRSLKELNLHLEEAYREGDNTYYRVNENYYPGASIYENERASRDSEFQNEILKRAEQNGVTFDEN
On to B6, for which, in test [9], the Kd stood at 7.9 nM, the koff was found to be 0.00034 s⁻¹ and the kon was 43000 M⁻¹ s⁻¹.

What is called koff is the first-order rate constant of dissociation. Low readings indicate a long-lived complex, high ones a short-lived complex. As a reminder, the kon is the second-order rate constant of association. The low end stands for slow association, the high end for fast association. Usually Kd stands for the free concentration of one partner at which half of the binding sites on the other are occupied at equilibrium, for simple one-to-one binding. Low readings indicate a tighter complex, high ones a looser complex.
